In patent US12305177B2, “Methods and platforms for sustainable high yield terpenoid production” (Purdue Research Foundation, priority 2019, dated 2025):

What was measured:
[1] = substrate: CC(C)=CCC/C(C)=C/CC/C(C)=C/CO[P@@](=O)(O)OP(=O)(O)O; assay: purified protein, by the assay type; details: 100 mM TAPS pH 8.5, 10 mM MgCl2, 37° C., means ± SD, n = 3, pH 8.5, 37.0 °C
[2] = substrate: CC(C)=CCOP(=O)(O)OP(=O)(O)O; assay: purified protein, by the assay type; details: 100 mM TAPS pH 8.5, 10 mM MgCl2, 37° C., means ± SD, n = 3, pH 8.5, 37.0 °C
[3] = substrate: C=C(C)CCOP(=O)(O)O; assay: purified protein, by the assay type; details: other: substrate of N. tabacum IPK; pH 7.5, 30° C.; pH 7.5; 30.0 °C
[4] = substrate: CC(C)=CCC/C(C)=C/COP(=O)(O)O; assay: NtIPK kinetics, lactate dehydrogenase/pyruvate kinase coupled assay; format: biochemical; details: other: substrate of N. tabacum IPK, pH 7.5, 30° C.
[5] = substrate: CC(C)=CCOP(=O)(O)O; assay: as above; format: biochemical; details: other: substrate of N. tabacum IPK, pH 7.5, 30° C.

B1: A. thaliana Nudx3 (Arabidopsis thaliana) (protein)
chain: MAEEHFDVLTKSGEKTGVSKPRGEVHRDGDYHRAVHVWIFVETTQQLLLQLRSDDKDSWPGQWDISSAGHISAGDTSLLSAQRELEEELGVKLPKDAFEKIFVFLQECVTNDGKFINNEFNDVYLVTILHPIPLEAFTLQKEEVSAVKYVPYEEYRNFLSKEDPAYVPYDVNGEYGKLFDIIRQRCQVNTEARSLSLQKQLQRYSPVTLEAKLTELSEADQKALGLIVKAAKIMDDIFYEQVWNSNPALRDWLKDHANASKLDKLKWDYFTINKSPWSSLDENEAFLSTADSAVKLLPGATKAIAGWKGLEYRAAFPVTKPPGANFYPPDMDKMEFTLWLNGLTEEQKHAATGFFSVIKRRSEANLDASDHLASSTKKLPDSNSDLYSIPYSEIYRPFLKKASEFLQKAGDLVSSPSLKKLLHSKAEAFLSNEYYESDIAWMDLDSKLDITIGPYETYEDEIFGYKATFETFIGIRDDKATADLKLFGDNLKLLEDNLPLESVYKSTDVSAAPIRVIQLIYNSGDVKGPQTVAYNLPNDEKIVKDRGTSMVMLKNVQEAKFEHILKPIAEITISKEQRGLVDFDSFFTHTICHECCHGIGPHTITLPGGQTSTVRKELQEVHSAMEEAKADIVGLWALKFLITKGLLSKSMVESMYVSFLAGCFRSIRFGLTEAHGKGQALQFNYLYEKGAFVFHEDSTFSVDFAKIEGAVESLSHEILTIQGKGDKNAATLLLNKYCTITGPLKTALENLERVKVPVDISPTFPLAEALMN
[1]; other: substrate of AtNudx3
  Km: 58 ± 10 µM
  kcat: 3.3 ± 0.3 s⁻¹
  kcat/Km: 5.7 × 10^4 ± 0.5 M^−1 s^−1
[2]; other: substrate of AtNudx3
  Km: 44 ± 8 µM
  kcat: 7.1 ± 0.3 s⁻¹
  kcat/Km: 1.6 × 10^5 ± 0.3 M^−1 s^−1

B2: A. thaliana Nudx1 (Arabidopsis thaliana) (protein)
chain: MSTGEAIPRVAVVVFILNGNSILLGRRRSSIGNSTFALPGGHLEFGESFEECAAREVMEETGLKIEKMKLLTVTNNVFKEAPTPSHYVSVSIRAVLVDPSQEPKNMEPEKCEGWDWYDWENLPKPLFWPLEKLFGSGFNPFTHGGGD
[1]; other: substrate of AtNudx1
  Km: 8.7 ± 1.6 µM
  kcat: 1.35 ± 0.06 s⁻¹
  kcat/Km: 1.6 × 10^5 ± 0.3 M^−1 s^−1
[2]; other: substrate of AtNudx1
  Km: 10.7 ± 1.8 µM
  kcat: 1.7 ± 0.07 s⁻¹
  kcat/Km: 1.6 × 10^5 ± 0.3 M^−1 s^−1

B3: N. tabacum IPK (Nicotiana tabacum) (protein)
chain: MEQNKASAPVPPTKRVRCIVKLGGAAITCKNKLETIDEENLTEVSSQLRQALIPNSDSAKILGMDWSKRPGQSEPPSFVDEFSDQPVADSESFIVVHGAGSFGHFQASKSGVHKGGLSRPLVKAGFVATRISVTSLNLEIVRALAREGIPSIGMSPFSCGWSTCQRNMTEADISMVIKAIDAGFIPVLHGDAVLDTLQECTILSGDVIIRHLAAELKPEFVVFLTDVLGVYDRPPVEPGAVLIREIAVREDGSWSVVKPRLEDTSKPVEFTVAAHDTTGGMVTKITEAAMIAKLGIDVYITKVGAGRNGPLSESPEWNLERQHT
[3]
  Km: 4.0 ± 1.5 µM
  kcat: 0.93 s⁻¹
  kcat/Km: 230000 M⁻¹ s⁻¹
[4]
  Km: 100 ± 60 µM
  kcat: 0.0017 ± 0.0002 s⁻¹
  kcat/Km: 17 M⁻¹ s⁻¹
[5]
  Km: 8.5 ± 2.3 µM
  kcat: 1.2 ± 0.06 s⁻¹
  kcat/Km: 140000 M⁻¹ s⁻¹
